From US20240034813A1 (Janssen / Centocor, published 2024)

Assays:
[1] = molecular target: T1, recombinant cMet/HGFR with c-terminal His-tag, Cy5-labeled (UniProt P08581 25-932, limits assumed, Cy5 label (reacted with Cy5 Mono NHS Ester; sites not stated)); assay: competitive TR-FRET (Eu-amivantamab/Cy5-c-MET), EC50 ratio vs Reference Material; Ex. 11 drug product, 5 months at 5 C
T1 construct: Commercial protein; also called Cy5-c-MET; Cy5-labeled c-MET antigen; not shown: C-terminal His-tag
Excerpt: (§1) In this procedure, varying concentrations of unlabeled bispecific EGFR-cMet antibody sample compete with donor fluorophore (Europium (Eu) chelate) labeled bispecific EGFR-cMet antibody for binding to an acceptor fluorophore (Cy5)-labeled c-MET antigen. Excitation of the donor fluorophore results in a transfer of energy to the bound acceptor fluorophore (FRET process). The resultant FRET is detected by emission of light at 665 nm using a microplate reader capable of measuring time-resolved fluorescence. Sample dose response curves are compared to the Reference Material (RM).
(§2) c-MET Binding Materials and Methods. Certified commercial cMet, a recombinant cMet/HGFR with c-terminal His-tag is reacted with certified commercial Cy5 Mono NHS Ester to produce Cy5-labeled c-MET. Validated bispecific EGFR-cMet antibody is reacted with certified commercial Europium (Eu) chelate to produce Eu labeled bispecific EGFR-cMet antibody. […] Fluorescence is then measured by spectrophotometry at 665 nm, plotted against antibody concentration and analyzed by a four-parameter logistic model. The antibody concentration required to obtain half of the maximum fluorescence response (EC50) is determined for RM, assay control and samples. The potencies of assay control and samples are calculated based on the ratio of the sample (or control) and RM EC50 values and reported as a percentage activity relative to the RM.

[2] = molecular target: T2, recombinant human EGFR/ErbB1/HER1 with C-terminal His tag, Cy5-labeled (human, UniProt P00533 25-645, Cy5 label (reacted with Cy5 Mono NHS Ester; sites not stated)); assay: competitive TR-FRET (Eu-amivantamab/Cy5-EGFR), EC50 ratio vs Reference Material; Ex. 2 Formulation 3 (acetate), T0, 25 C table
T2 construct: Commercial protein; also called Cy5-EGFR; Cy5-labeled EGFR antigen; not shown: C-terminal His tag
Excerpt: as §1, with “EGFR” for “c-MET”, “RM.” for “Reference Material (RM).”
as §2, with “EGFR” for “c-MET”, “EGFR,” for “cMet,”, “human EGFR/ErbB1/HER1” for “cMet/HGFR”, “C-terminal His tag” for “c-terminal His-tag”, “EGFR.” for “c-MET.”, “Eu-labeled” for “Eu labeled”

[3] = molecular target: T1, recombinant cMet/HGFR with c-terminal …; assay: competitive TR-FRET (Eu-amivantamab/Cy5-c-MET), EC50 ratio vs Reference Material; Ex. 2 Formulation 3 (acetate), T0, 25 C table
Excerpt: as §1, §2

[4] = molecular target: T2, recombinant human EGFR/ErbB1/HER1 with …; assay: competitive TR-FRET (Eu-amivantamab/Cy5-EGFR), EC50 ratio vs Reference Material; Ex. 2 Formulation 2 (50 mM histidine), T0, 25 C table
Excerpt: as §1, with “EGFR” for “c-MET”, “RM.” for “Reference Material (RM).”
as §2, with “EGFR” for “c-MET”, “EGFR,” for “cMet,”, “human EGFR/ErbB1/HER1” for “cMet/HGFR”, “C-terminal His tag” for “c-terminal His-tag”, “EGFR.” for “c-MET.”, “Eu-labeled” for “Eu labeled”

[5] = molecular target: T2, recombinant human EGFR/ErbB1/HER1 with …; assay: competitive TR-FRET (Eu-amivantamab/Cy5-EGFR), EC50 ratio vs Reference Material; Ex. 12 drug product with rHuPH20, 0 months, 5 C table
Excerpt: as §1, with “EGFR” for “c-MET”, “RM.” for “Reference Material (RM).”
as §2, with “EGFR” for “c-MET”, “EGFR,” for “cMet,”, “human EGFR/ErbB1/HER1” for “cMet/HGFR”, “C-terminal His tag” for “c-terminal His-tag”, “EGFR.” for “c-MET.”, “Eu-labeled” for “Eu labeled”

[6] = molecular target: T1, recombinant cMet/HGFR with c-terminal …; assay: competitive TR-FRET (Eu-amivantamab/Cy5-c-MET), EC50 ratio vs Reference Material; Ex. 12 drug product with rHuPH20, 0 months, 5 C table
Excerpt: as §1, §2

[7] = molecular target: T1, recombinant cMet/HGFR with c-terminal …; assay: competitive TR-FRET (Eu-amivantamab/Cy5-c-MET), EC50 ratio vs Reference Material; Ex. 2 Formulation 2 (50 mM histidine), 3 months at 25 C
Excerpt: as §1, §2

[8] = molecular target: T1, recombinant cMet/HGFR with c-terminal …; assay: competitive TR-FRET (Eu-amivantamab/Cy5-c-MET), EC50 ratio vs Reference Material; Ex. 2 Formulation 2 (50 mM histidine), 3 months at 40 C
Excerpt: as §1, §2

cMET Binding activity relative to Reference Material (%) [1]: 108% | EGFR Binding % activity relative to RM [2]: 103% | cMET Binding % activity relative to RM [3]: 94% | EGFR Binding % activity relative to RM [4]: 103% | EGFR Binding activity relative to Reference Material (%) [5]: 92% | cMET Binding activity relative to Reference Material (%) [6]: 91% | cMET Binding % activity relative to RM [7]: 89% | cMET Binding % activity relative to RM [8]: 77%
B1: amivantamab (bispecific antibody, human IgG1, kappa)
heavy 1: not shown
light 1: not shown
heavy 2: not shown
light 2: DIQMTQSPSSVSASVGDRVTITCRASQGISNWLAWFQHKPGKAPKLLIYAASSLLSGVPSRFSGSGSGTDFTLTISSLQPEDFATYYCQQANSFPITFGQGTRLEIKRTVAAPSVFIFPPSDEQLKSGTASVVCLLNNFYPREAKVQWKVDNALQSGNSQESVTEQDSKDSTYSLSSTLTLSKADYEKHKVYACEVTHQGLSSPVTKSFNRGEC
notes: The samples tested were high concentration (160 mg/mL) formulations, fresh or stored or stressed; also called JNJ-61186372; bispecific EGFR-cMet antibody
